# Key:
# surface of live cells = assay: association and dissociation on the surface of live cells; method not stated
# [1] = target: human KLB and FGFR1c overexpressed on HEK293 cells (human) (UniProt Q86Z14); assay: cell-based or functional assay
# Sequence of UniProt Q86Z14 (Q86Z14 whole entry, chain 1 of 2): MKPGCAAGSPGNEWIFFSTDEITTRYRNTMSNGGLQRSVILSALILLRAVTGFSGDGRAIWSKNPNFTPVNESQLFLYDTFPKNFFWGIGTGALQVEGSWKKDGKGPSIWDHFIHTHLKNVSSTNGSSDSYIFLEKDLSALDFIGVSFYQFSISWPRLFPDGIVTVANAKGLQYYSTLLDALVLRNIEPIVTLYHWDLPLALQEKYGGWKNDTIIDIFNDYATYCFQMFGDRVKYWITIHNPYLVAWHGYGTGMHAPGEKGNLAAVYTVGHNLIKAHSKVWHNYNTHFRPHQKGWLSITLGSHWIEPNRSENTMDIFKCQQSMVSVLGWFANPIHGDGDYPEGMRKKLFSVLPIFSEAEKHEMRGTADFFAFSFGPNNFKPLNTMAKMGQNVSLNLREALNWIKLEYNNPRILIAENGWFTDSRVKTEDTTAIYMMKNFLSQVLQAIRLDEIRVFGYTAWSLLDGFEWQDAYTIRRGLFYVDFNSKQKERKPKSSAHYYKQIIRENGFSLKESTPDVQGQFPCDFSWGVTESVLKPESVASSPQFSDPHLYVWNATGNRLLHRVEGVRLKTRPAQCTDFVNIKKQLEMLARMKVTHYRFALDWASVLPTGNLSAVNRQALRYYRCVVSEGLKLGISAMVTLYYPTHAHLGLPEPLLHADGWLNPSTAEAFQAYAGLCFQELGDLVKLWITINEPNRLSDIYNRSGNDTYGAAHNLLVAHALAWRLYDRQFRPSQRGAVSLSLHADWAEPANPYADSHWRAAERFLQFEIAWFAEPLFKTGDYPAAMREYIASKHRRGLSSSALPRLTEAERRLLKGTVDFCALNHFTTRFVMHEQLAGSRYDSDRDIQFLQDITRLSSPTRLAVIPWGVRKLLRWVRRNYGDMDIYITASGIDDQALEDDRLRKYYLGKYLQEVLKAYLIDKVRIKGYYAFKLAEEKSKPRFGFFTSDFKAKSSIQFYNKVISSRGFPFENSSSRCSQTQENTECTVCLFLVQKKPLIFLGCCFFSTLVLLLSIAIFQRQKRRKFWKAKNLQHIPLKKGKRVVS
# Sequence of UniProt Q86Z14 (P11362 22-822, chain 2 of 2, further chain): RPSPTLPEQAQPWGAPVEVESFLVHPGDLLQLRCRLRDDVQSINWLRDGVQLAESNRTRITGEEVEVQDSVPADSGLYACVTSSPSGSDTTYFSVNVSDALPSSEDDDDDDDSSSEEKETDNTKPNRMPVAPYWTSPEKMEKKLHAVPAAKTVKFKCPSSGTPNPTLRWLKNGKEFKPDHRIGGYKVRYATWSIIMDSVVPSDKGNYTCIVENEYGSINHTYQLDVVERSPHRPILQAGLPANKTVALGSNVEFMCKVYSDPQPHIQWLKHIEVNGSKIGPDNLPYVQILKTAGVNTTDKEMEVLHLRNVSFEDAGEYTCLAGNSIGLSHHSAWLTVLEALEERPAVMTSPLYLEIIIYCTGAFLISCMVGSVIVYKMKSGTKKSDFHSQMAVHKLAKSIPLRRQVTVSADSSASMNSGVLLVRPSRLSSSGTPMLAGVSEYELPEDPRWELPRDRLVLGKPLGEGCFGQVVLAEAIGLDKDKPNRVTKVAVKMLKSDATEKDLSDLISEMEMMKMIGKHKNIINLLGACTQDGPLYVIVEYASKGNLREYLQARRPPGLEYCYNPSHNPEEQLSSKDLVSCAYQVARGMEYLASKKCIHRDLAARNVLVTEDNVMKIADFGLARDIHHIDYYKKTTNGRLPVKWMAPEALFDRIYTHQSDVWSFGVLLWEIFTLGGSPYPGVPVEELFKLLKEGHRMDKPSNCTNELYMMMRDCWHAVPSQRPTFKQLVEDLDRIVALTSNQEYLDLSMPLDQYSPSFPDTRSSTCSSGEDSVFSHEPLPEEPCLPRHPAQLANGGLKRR
substance,measurement,setting,value
Efruxifermin (EFX) (Fc fusion),"fold more stable interaction, compared to either free FGF21 or a single FGF21 domain linked to an Fc domain",surface of live cells,> 100 fold
same,"cell-based potency assay, Elk1 luciferase reporter in HEK293 cells overexpressing human KLB and FGFR1c; potency relative to ¾ EFX",[1],2 fold

# From patent US20260078157A1
